Results published in US7371828.
Positions count from the first letter of the chain named. In names and notes the source's numbering stands.

Target: T1, MBP from bovine brain (Sigma), P02687
T1 chain: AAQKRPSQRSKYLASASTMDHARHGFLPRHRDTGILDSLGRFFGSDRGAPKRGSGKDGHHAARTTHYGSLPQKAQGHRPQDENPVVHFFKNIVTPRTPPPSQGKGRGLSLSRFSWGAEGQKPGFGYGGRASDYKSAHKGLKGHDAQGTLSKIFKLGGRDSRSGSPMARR

B1: human ERK5 (hERK5) wild type protein (protein)
chain: MSSPPPGGSGFYRQEVTKTAWEVRAVYRDLQPVGSGAYGAVCSAVDGRTGAKVAIKKLYRPFGSELFAKLAYRELRLLKHMRHENVIGLLDVFTPDETLDDFTDFYLVMPFMGTDLGKLMKHEKLGEDRIQFLVYQMMKGLRYIHAAGIIHRDLKPGNLAVNEDCELKILDFGLARQADSEMTGYVVTRWYRAPEVILNWIAYTQTVDIWSVGCIMAEMITGKTLFKGSDHLDQLKEIMKVTGTPPAEFVQRLQSDEAKNYMKGLPELEKKDFASILTNASPLAVNLLEKMLVLDADIRLTAGEFLSHPYFESLHDTEDEPQVQKYDDSFDYFDRTLDEWKPCYLQRGAQLQASPAAGGQGLQGDASVKISGLRGGSEDHLHLPPERGLSLPP
MBP kinase activity (32P incorporation in MBP-containing polyacrylamide gel): A predominant signal is observed at 56 kD; A weaker signal at the position of the 44/46 kD bands

B2: hERK5 Y185F mutant (protein)
chain: B1 chain with Y185F
MBP kinase activity (32P incorporation in MBP-containing polyacrylamide gel): the lack of ^32P incorporation in lanes 5 and 6
MBP phosphorylation assay: this mutant is indeed kinase negative
